Laboratory results published in US20240200085A1 (AARHUS UNIVERSITET, published 2024).

Biological target: T1, GFP-tagged NFR5 (LjNFR5-sfGFP) (Lotus japonicus)
T1 construct: Full-length receptor with C-terminal sfGFP; In the co-IP it was expressed from pLjUbi in N. benthamiana leaves and extracted with detergent; In nodulation assays it was expressed from the native Nfr5 promoter in roots; also called NFR5-GFP
Assay: co-immunoprecipitation (RFP-Trap) from N. benthamiana leaf extracts, anti-GFP and anti-mCherry immunoblot (FIG. 1J)
Experimental: The assay was performed as in Arora et al. (The Plant Cell 34, 7, 2806 (2022)). In short, N. benthamiana leaves were crushed to a powder in liquid nitrogen using a mortar and pestle, then incubated for 1 hour at 4° C. on a rotor in buffer containing 50 mM Tris-HCl (pH 7.5), 150 mM NaCl, 10% (v/v) glycerol, 2 mM EDTA, 5 mM DTT, 1 mM phenylmethylsulfonyl fluoride, Protease Inhibitor Cocktail (Sigma-Aldrich), and 1% (v/v) IGEPAL® CA-630 (Alfa Aesar) in a ratio of 2 mL/g tissue. Extracts were centrifuged at 4° C. and 4700 rpm for 30 minutes. Supernatants were directly incubated with RFP-Trap® Magnetic Agarose beads (ChromoTek®) overnight at 4° C. The beads were washed five times in buffer containing 50 mM Tris-HCl (pH 7.5), 150 mM NaCl, 10% (v/v) glycerol, 2 mM EDTA, Protease Inhibitor Cocktail (Sigma-Aldrich), and 0.5% (v/v) IGEPAL® CA-630 (Alfa Aesar) on ice. To release the proteins, 50 μL of SDS sample buffer (25 mM Tris-HCl, pH 6.8, 10% glycerol, 2% SDS, 0.2% 2-mercaptoethanol, 0.6 mg/mL Bromophenol blue) was added and samples were heated for 5 minutes at 95° C.
Proteins were separated on 12% SDS-polyacrylamide gels at 120 V for 3 h. Blotting to PVDF membranes (Merck) was done by wet transfer for 2 hours at 90 V. Membranes were blocked with 5% milk for 1 hour. […] Chemiluminescence was detected on a G-BOX (Syngene) using ECL Prime Western Blotting Detection Reagent (Cytiva).

T1 sequence (chain, as listed by the source limits assumed): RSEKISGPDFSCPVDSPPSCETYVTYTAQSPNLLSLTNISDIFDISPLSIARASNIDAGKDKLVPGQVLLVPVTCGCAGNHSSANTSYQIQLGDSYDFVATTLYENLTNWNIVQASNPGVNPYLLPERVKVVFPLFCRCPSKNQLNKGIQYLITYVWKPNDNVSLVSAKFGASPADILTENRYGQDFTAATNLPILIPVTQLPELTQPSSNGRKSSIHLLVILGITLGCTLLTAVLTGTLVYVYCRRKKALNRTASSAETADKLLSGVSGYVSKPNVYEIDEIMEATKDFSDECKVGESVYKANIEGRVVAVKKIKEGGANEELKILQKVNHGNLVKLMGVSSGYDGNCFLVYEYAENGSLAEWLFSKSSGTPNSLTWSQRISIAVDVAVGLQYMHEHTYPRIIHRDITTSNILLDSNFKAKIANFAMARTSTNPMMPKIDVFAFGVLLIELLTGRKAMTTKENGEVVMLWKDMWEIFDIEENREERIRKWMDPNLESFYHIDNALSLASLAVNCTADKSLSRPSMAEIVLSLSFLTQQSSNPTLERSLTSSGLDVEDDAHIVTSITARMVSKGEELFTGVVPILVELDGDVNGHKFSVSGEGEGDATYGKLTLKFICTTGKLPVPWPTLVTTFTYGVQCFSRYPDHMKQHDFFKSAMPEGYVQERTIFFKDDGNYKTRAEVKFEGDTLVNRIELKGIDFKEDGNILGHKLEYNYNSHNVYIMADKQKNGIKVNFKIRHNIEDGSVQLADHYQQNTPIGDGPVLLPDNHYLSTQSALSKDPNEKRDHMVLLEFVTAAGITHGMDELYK

B1: VHHLaG16m-tagged mCherry (mCherry_20linker_mutNbsfGFP-HA) (VHH)
VHH: QVQLVESGGRLVQAGDSLRLSCAASGRTWSTSAMAWFRQAPGREREFVAAITWWVGNTILGDSVKGRFTISRDRAKNTVDLQMDNLEPEDTAVYYCSARSRWYVLSVLRSVDSYDYWGQGTQVTVSS
notes: Construct EC32015, expressed in N. benthamiana leaves; LaG16 was engineered to carry three bulky tryptophan residues in the paratope; also called mCherry mutNb; mutated LaG16; not shown: mCherry red fluorescent protein (engineered); 20-residue linker ('20linker'); HA tag
binding result: no binding
